How the values were obtained:
[1] = system: control fibroblasts (CFs); assay: BrdU incorporation into DNA (cell proliferation) in control fibroblasts; format: cell-based, Wistar rat; conditions: 24-hr serum starved CFs, vs starved cells; dose providing the maximum response (IGF 50 ng, PDGF 1 nM, EGF 100 ng)
Procedure: (§1) Cell culture and HP treatment. […] Assessment of key fibroblast functions essential for wound healing. To assess cell proliferation, fibroblasts were seeded into a 96-well plate at a density of 1×10^4 per well and were allowed to adhere overnight in DMEM medium supplemented with 10% FCS. After arrest by incubation in serum-free medium for 24 hours, the cells were exposed to growth factors, and the incorporation of bromodeoxyuridine (BrdU) into DNA was determined using the manufacturer's protocol (Roche Diagnostics). Similarly, for the in vitro wound (migration) experiments, cultured fibroblasts were grown in six-well plates until they reached confluence. The medium was removed, the cells were washed with PBS 3× before culturing was continued in serum-free DMEM containing 0.5% BSA for an additional 24 hours. […] The rate of wound healing was quantified as described in the literature […] Caveolin-1 protein expression and PDGF-induced phosphorylation of Akt (20 min) and ERK (10 min) in 24-hr serum starved fibroblasts were determined using a Western-blotting-based technique. A proliferation index encompassing BrdU incorporation into DNA and cell cycle progression was evaluated in response to various growth factors (e.g., IGF, 50 ng; PDGF, 1 nM; EGF, 100 ng) in 24-hr serum starved fibroblast. […]

[2] = system: control fibroblasts (CFs); assay: In vitro scratch wound (cell migration) in control fibroblasts; format: cell-based, Wistar rat; conditions: 24 hrs post-injury
Procedure: as §1

B1: EGF: mitotic growth factor (protein, UniProt P01133 23-1207, looked up)
Pro-epidermal growth factor: PQHWSCPEGTLAGNGNSTCVGPAPFLIFSHGNSIFRIDTEGTNYEQLVVDAGVSVIMDFHYNEKRIYWVDLERQLLQRVFLNGSRQERVCNIEKNVSGMAINWINEEVIWSNQQEGIITVTDMKGNNSHILLSALKYPANVAVDPVERFIFWSSEVAGSLYRADLDGVGVKALLETSEKITAVSLDVLDKRLFWIQYNREGSNSLICSCDYDGGSVHISKHPTQHNLFAMSLFGDRIFYSTWKMKTIWIANKHTGKDMVRINLHSSFVPLGELKVVHPLAQPKAEDDTWEPEQKLCKLRKGNCSSTVCGQDLQSHLCMCAEGYALSRDRKYCEDVNECAFWNHGCTLGCKNTPGSYYCTCPVGFVLLPDGKRCHQLVSCPRNVSECSHDCVLTSEGPLCFCPEGSVLERDGKTCSGCSSPDNGGCSQLCVPLSPVSWECDCFPGYDLQLDEKSCAASGPQPFLLFANSQDIRHMHFDGTDYGTLLSQQMGMVYALDHDPVENKIYFAHTALKWIERANMDGSQRERLIEEGVDVPEGLAVDWIGRRFYWTDRGKSLIGRSDLNGKRSKIITKENISQPRGIAVHPMAKRLFWTDTGINPRIESSSLQGLGRLVIASSDLIWPSGITIDFLTDKLYWCDAKQSVIEMANLDGSKRRRLTQNDVGHPFAVAVFEDYVWFSDWAMPSVMRVNKRTGKDRVRLQGSMLKPSSLVVVHPLAKPGADPCLYQNGGCEHICKKRLGTAWCSCREGFMKASDGKTCLALDGHQLLAGGEVDLKNQVTPLDILSKTRVSEDNITESQHMLVAEIMVSDQDDCAPVGCSMYARCISEGEDATCQCLKGFAGDGKLCSDIDECEMGVPVCPPASSKCINTEGGYVCRCSEGYQGDGIHCLDIDECQLGEHSCGENASCTNTEGGYTCMCAGRLSEPGLICPDSTPPPHLREDDHHYSVRNSDSECPLSHDGYCLHDGVCMYIEALDKYACNCVVGYIGERCQYRDLKWWELRHAGHGQQQKVIVVAVCVVVLVMLLLLSLWGAHYYRTQKLLSKNPKNPYEESSRDVRSRRPADTEDGMSSCPQPWFVVIKEHQDLKNGGQPVAGEDGQAADGSMQPTSWRQEPQLCGMGTEQGCWIPVSSDKGSCPQVMERSFHMPSYGTQTLEGGVEKPHSLLSANPLWQQRALDPPHQMELTQ
modifications: Pro-epidermal growth factor
- increase of proliferation rate (BrdU incorporation) [1]: ~7.1 fold
- number of cells that migrated into the cell-free wound zone [2]: markedly increased

From patent publication US10206896B2, “Method of treating delayed healing of a wound associated with diabetes” (KUWAIT UNIVERSITY, priority 2014, dated 2019)
